Measured values as given in PMC2673414 (Nucleic Acids Research, 2009).

Target: the molecule itself
Test: crystal structure

B1: human TREX2 protein (enzyme)
chain: MSEAPRAETFVFLDLEATGLPSVEPEIAELSLFAVHRSSLENPEHDESGALVLPRVLDKLTLCMCPERPFTAKASEITGLSSEGLARCRKAGFDGAVVRTLQAFLSRQAGPICLVAHNGFDYDFPLLCAELRRLGARLPRDTVCLDTLPALRGLDRAHSHGTRARGRQGYSLGSLFHRYFRAEPSAAHSAEGDVHTLLLIFLHRAAELLAWADEQARGWAHIEPMYLPPDDPSLEA
binding result: binds
